Values quoted from earlier work in PMC3971948.

Molecular target: Asp85 (UniProt position 98, WAQYADWLFTT)
Conditions: Initial unphotolysed BR state of the R82Q mutant

In the case of “Bacteriorhodopsin R82Q (Halobacterium salinarum; R82Q)”, the pKa is listed as “up to ∼7”.
